According to US20160237156A1:

Assays:
[1] = molecular target: SNAP-tag-CXCR4 (Tag-lite labeled CXCR4 cells, Cisbio Bioassays) (UniProt P61073); assay: Tag-lite HTRF competition with 50 nM fluorescent SDF-1 on Tag-lite labeled CXCR4 cells
CXCR4 (human) [2] = molecular target: CXCR4 (human) (UniProt P61073); assay: flow cytometry on Jurkat cells, competition with fluorescein conjugated 12G5 (66.6 nM) as competitor
CXCR4 (human) [3] = molecular target: CXCR4 (human) (UniProt P61073); assay: cell-based or functional assay
CXCR4 (human) [4] = molecular target: CXCR4 (human) (UniProt P61073); assay: flow cytometry on CXCR4 transfected CHO cells, 1 µg/ml antibody
[5] = molecular target: SNAP-tag-CXCR4 (Tag-lite labeled CXCR4 cells, Cisbio Bioassays) (UniProt P61073); assay: Tag-lite HTRF competition with 50 nM fluorescent SDF-1, Cheng-Prusoff

Sequence of CXCR4 (human) (P61073 whole entry): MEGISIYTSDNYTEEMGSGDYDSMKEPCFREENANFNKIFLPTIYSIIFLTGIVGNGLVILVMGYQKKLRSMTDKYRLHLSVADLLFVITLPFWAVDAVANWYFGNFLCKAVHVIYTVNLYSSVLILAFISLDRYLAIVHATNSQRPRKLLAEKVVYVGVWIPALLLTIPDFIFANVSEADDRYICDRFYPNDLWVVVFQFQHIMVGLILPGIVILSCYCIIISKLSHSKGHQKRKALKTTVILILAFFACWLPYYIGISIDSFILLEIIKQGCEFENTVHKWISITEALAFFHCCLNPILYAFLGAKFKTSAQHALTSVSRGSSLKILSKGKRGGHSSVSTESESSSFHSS
Sequence of SNAP-tag-CXCR4 (Tag-lite labeled CXCR4 cells, Cisbio Bioassays) (P61073 whole entry): as above

B1: BLV1H12-beta BCCX2 HC 1 IgG (antibody, V domains shown)
VH: QVQLRESGPSLVKPSQTLSLTCTASGFSLSDKAVGWVRQAPGKALEWLGSIDTGGNTGYNPGLKSRLSITKDNSKSQVSLSVSSVTTEDSATYYCTSVHQETKKYQSYRKCRGGRRWCYQKSYTYNYEWHVDVWGQGLLVTVSS
VL: QAVLNQPSSVSGSLGQRVSITCSGSSSNVGNGYVSWYQLIPGSAPRTLIYGDTSRASGVPDRFSGSRSGNTATLTISSLQAEDEADYFCASAEDSSSNAVFGSGTTLTVLG
With B1 the IC50 [1] was 9.58 nM, the IC50 (CXCR4 (human) [2]) was 39.3 nM and the inhibition of SDF-1 induced migration of Ramos cells, EC50 (CXCR4 (human) [3]) was 8.5 nM. The flow cytometry peak shift (CXCR4 (human) [4]) was 73.8% and the Ki [5] was 2.12 nM.
